Reference: patent publication US20250082771A1, “DOSAGE REGIMEN OF AN ANTI-CDH6 ANTIBODY-DRUG CONJUGATE” (DAIICHI SANKYO COMPANY, LIMITED, priority 2022, published 2025)

Legend:
Format in all cases: in vivo, human
[1] = tested on: RCC and OVC subjects; experiment: Phase 1 dose escalation part: safety and tolerability (TEAEs, DLT, RDE)
Protocol: (§1) The dose escalation part of the Phase 1 study was a multicenter, open-label, multiple-dose, first-in-human study of DS-6000a, which enrolled subjects in the United States (see clinicaltrials.gov identifier NCT 04707248). DS-6000a was administered intravenously every 3 weeks. In the dose escalation part, RCC and OVC subjects were enrolled and dose-limiting toxicity (DLT) was assessed during Cycle 1.
The primary objective of the dose escalation part was to investigate the safety and tolerability and determine the maximum-tolerated dose (MTD) and/or recommended dose for expansion (RDE).
(§2) Patient assessments included echocardiogram or multigated acquisition scan, 12-lead electrocardiogram, AEs, PK, human anti-human antibodies, biomarkers, and tumor assessments at prespecified visits. The demographic and baseline characteristics of the patient enrolled in this dose escalation part of the Phase 1 study are shown in FIG. 2.
(§3) For this dose escalation part of the Phase 1 study, Bayesian optimal interval (BOIN) design was used to estimate the MTD. Accelerated titration, treat a single subject at a dose level, was performed until any DLT or ≥Grade 2 AE possibly related to DS-6000a (excluding infusion-related reactions) is observed during Cycle 1. Objective response rate (ORR), clinical benefit rate (CBR), and disease control rate (DCR) were summarized with 95% confidence intervals (CI) using the Clopper-Pearson method; duration of response (DOR) and progression-free survival (PFS) were summarized using the Kaplan-Meier method. Safety endpoints, PK parameters and plasma anti-drug antibodies were summarized using descriptive statistics.

[2] = tested on: RCC and OVC subjects; experiment: Phase 1 dose escalation part: tumor response per RECIST V1.1
Protocol: as §1, §2, §3

[3] = tested on: CA-125; experiment: Phase 1 dose escalation part: CA-125 response (GCIG criteria)
Description: (§4) Secondary objectives included characterizing the pharmacokinetic (PK) properties of DS-6000a, total anti-CDH6 antibody, drug component and assessing the immunogenicity. Exploratory objectives included evaluating biomarker that correlate with efficacy and disease assessment in OVC using Gynecologic Cancer Intergroup (GCIG) criteria.

[4] = tested on: RCC and OVC subjects; experiment: Phase 1 dose escalation and expansion parts as of new cut-off date: safety and tolerability
Protocol: (§5) The dose expansion part of the Phase 1 study was a multicenter, open-label, multiple-dose, first-in-human study of DS-6000a, which enrolled subjects in the United States (see clinicaltrials.gov identifier NCT 04707248). DS-6000a was administered intravenously every 3 weeks. The dose expansion part included administering to RCC and OVC subjects at RDEs. Initially, dose of 8.0 mg/kg was expanded, subsequently, the 6.4, 5.6 and 4.8 mg/kg doses were added as RDEs (FIG. 12).
The primary objective of the dose expansion part was to evaluate the safety, tolerability, and efficacy at the RDEs.
Patient assessments included echocardiogram or multigated acquisition scan, 12-lead electrocardiogram, AEs, PK, human anti-human antibodies, biomarkers, and tumor assessments at prespecified visits.
(§6) Objective response rate (ORR), clinical benefit rate (CBR), and disease control rate (DCR) were summarized with 95% confidence intervals (CI) using the Clopper-Pearson method; duration of response (DOR) and progression-free survival (PFS) were summarized using the Kaplan-Meier method. Safety endpoints, PK parameters and plasma anti-drug antibodies were summarized using descriptive statistics.
(§7) After the initial data-cut, additional patients were enrolled in Phase 1 (both escalation and expansion), bringing the overall number of participants to sixty-seven (N=67). The demographic and baseline characteristics of the patient enrolled in dose escalation and expansion parts of the Phase 1 study as of new cut-off date are shown in FIG. 13. Subjects ranged in age from 34 to 83 years with a median age of 63 years. A median of 4 prior lines of therapy was administered. The prior lines of therapy comprise a platinum-based chemotherapeutic, a chemotherapeutic, a PARP inhibitor, an immune checkpoint inhibitor, an angiogenic inhibitor and a VEGFR-TKI. The subjects were 25.4% RCC, 74.6% OVC and 64.2% had Eastern Cooperative Oncology Group performance status (ECOG PS) of 1.
Subjects had received DS-6000a as monotherapy with a median treatment duration of 15.4 weeks (range 3.0 to 93.9 weeks). The number of patients in the dose escalation and expansion parts of the Phase 1 study as of new cut-off date with TEAE, which occurred in […] of patients, regardless of causality, is shown in FIG. 14.

[5] = tested on: OVC subjects; experiment: Phase 1 dose escalation and expansion parts as of new cut-off date: tumor response, ORR and PFS
Protocol: as §5, §6, §7
One confirmed CR and 14 confirmed PR were observed among 44 evaluable OVC subjects at doses ranging from 1.6 to 9.6 mg/kg. SD was reported for 24 subjects (FIG. 17).

[6] = tested on: CA-125; experiment: Phase 1 dose escalation and expansion parts as of new cut-off date: CA-125 response
Description: as §4

[7] = dose escalation part, among 24 efficacy evaluable patients
[8] = dose escalation and expansion parts, new cut-off date, N=67
[9] = among 44 evaluable OVC subjects, 1.6 to 9.6 mg/kg, new cut-off date

DS-6000a: anti-CDH6 antibody (SEQ ID NO: 69 positions 20-471; SEQ ID NO: 61 positions 21-233) bound via thioether bond to drug linker; DAR 7 to 8
patients discontinued due to PD per RECIST V1.1 ([1]; 1.6 mg/kg): 1 patients
patients discontinued due to clinical progression ([1]; 3.2 mg/kg): 1 patients
patients discontinued due to death ([1]; 3.2 mg/kg): One
patients required dose interruption ([1]; 3.2 mg/kg): 1 patients
patients discontinued due to clinical progression ([1]; 4.8 mg/kg): 1 patients
patients required dose interruption ([1]; 4.8 mg/kg): 2 patients
patients discontinued due to PD per RECIST V1.1 ([1]; 6.4 mg/kg): 2 patients
patients discontinued due to clinical progression ([1]; 6.4 mg/kg): 1 patients
patients required dose interruption ([1]; 6.4 mg/kg): 3 patients
patients discontinued due to PD per RECIST V1.1 ([1]; 8.0 mg/kg): 2 patients
patients discontinued due to clinical progression ([1]; 8.0 mg/kg): 1 patients
patients required dose interruption ([1]; 8.0 mg/kg): 1 patients
patients required dose reduction ([1]; 8.0 mg/kg): 1 patients
patients discontinued due to adverse event ([1]; 9.6 mg/kg): One
patients required dose interruption ([1]; 9.6 mg/kg): 2 patients
patients required dose reduction ([1]; 9.6 mg/kg): 2 patients
DLTs ([1]; 9.6 mg/kg, Cycle 1, Gr3 febrile neutropenia and Gr4 platelet count decreased): Two
serious TEAEs considered drug-related ([1]; Grade 3 anaemia and Grade 3 febrile neutropenia at 9.6 mg/kg): Two
RDE (recommended dose for expansion) ([1]; IV every 3 weeks): 8.0 mg/kg
grade of serious TEAEs ([1]; N=30): all events are Grade 3
patients with serious TEAEs ([1]; N=30 (4/30)): 13.3%
patients reported Grade 23 related TEAE ([1]; N=30 (7/30), drug-related): 23.3%
patients reported Grade 23 TEAE ([1]; N=30 (10/30), regardless of causality): 33.3%
patients discontinued from treatment ([1]; N=30 (13 patients)): 43.3%
patients with drug-related TEAEs ([1]; N=30 (25 patients)): 83.3%
patients reported 21 TEAE ([1]; N=30 (26/30), regardless of causality, IV every 3 weeks): 86.7%
patients discontinued due to PD per RECIST V1.1 ([1]; N=30, all dose levels): 5 patients
patients discontinued due to clinical progression ([1]; N=30, all dose levels): Four
patients required dose interruption ([1]; N=30, all dose levels): Nine
patients required dose reduction ([1]; N=30, all dose levels): three
Grade 23 related TEAE neutrophil count decreased ([1]; N=30, drug-related): 16.7%
related TEAE decreased appetite ([1]; N=30, drug-related): 20.0%
related TEAE fatigue ([1]; N=30, drug-related): 56.7%
related TEAE nausea ([1]; N=30, drug-related): 60.0%
related TEAE neutrophil count decreased ([1]; N=30, drug-related): 23.3%
related TEAE vomiting ([1]; N=30, drug-related): 30.0%
Grade 23 TEAE anaemia ([1]; N=30, regardless of causality): 10.0%
Grade 23 TEAE hypokalemia ([1]; N=30, regardless of causality): 10.0%
Grade 23 TEAE neutrophil count decreased ([1]; N=30, regardless of causality): 16.7%
TEAE decreased appetite ([1]; N=30, regardless of causality): 40.0%
TEAE diarrhoea ([1]; N=30, regardless of causality): 20.0%
TEAE fatigue ([1]; N=30, regardless of causality): 63.3%
TEAE nausea ([1]; N=30, regardless of causality): 60.0%
TEAE neutrophil count decreased ([1]; N=30, regardless of causality): 23.3%
TEAE vomiting ([1]; N=30, regardless of causality): 46.7%
tolerability ([1]; as of data cut off): generally well tolerated
time stayed in treatment, one patient with SD ([2]; dose escalation part, 8.0 mg/kg): more than 180 days
tumor shrinkage in target lesion ([2]; dose escalation part, 3.2, 4.8, 6.4, 8.0 and 9.6 mg/kg dose levels): Tumor shrinkages were observed
durability of tumor responses ([2]; dose escalation part, FIG. 6): durable
PRs based on RECIST V1.1 ([2]; dose escalation part, RCC, among 24 efficacy evaluable patients): one
best percent change in sum of longest dimensions from baseline (tumor reduction) ([2]; dose escalation part, a patient in the 9.6 mg/kg dosing group): 68.8%
Non-CR/Non-PDs [2, 7]: 2
PRs (including single point PRs, not yet confirmed responses) based on RECIST V1.1 [2, 7]: 6
stable diseases (SDs) [2, 7]: 12
PRs based on RECIST V1.1 ([2]; dose escalation part, platinum-resistant OVC, among 24 efficacy evaluable patients): five
maximum decrease in tumor size ([2]; one clear cell RCC patient, 3 prior therapies including ICI and VEGFR-TKI, 3.2 mg/kg, 51.4 weeks following initiation of treatment): 64.3%
maximum decrease in tumor size ([2]; one platinum-resistant OVC patient, 3 prior therapies including bevacizumab and PARP inhibitor, 6.4 mg/kg, 40.4 weeks following initiation of treatment): 35.7%
durability of CA-125 responses ([3]; FIG. 8): durable
patients showed CA-125 responder ([3]; among 17 efficacy evaluable OVC patients, at least 50% reduction in CA-125 from baseline, confirmed and maintained at least 28 days): 8 patients
CA-125 response rates by dose level ([3]; dose level of 4.8 to 9.6 mg/kg): Higher CA-125 response rates
fatal cases ([4]; 8.0 mg/kg): 3
tolerability ([4]; 8.0 mg/kg, frequent dose reduction/interruption compared to lower doses): not tolerated
doses at which well tolerated ([4]; dose escalation and expansion parts, new cut-off date): up to 6.4 mg/kg
most frequently reported Grade 23 events [4, 8]: hematological events
severity of the majority of the gastrointestinal events [4, 8]: Grade 1 or 2
most frequently reported TEAEs ([4]; dose escalation and expansion parts, new cut-off date, N=67, monotherapy): gastrointestinal events (nausea, vomiting and diarrhea), fatigue, decreased appetite and hematological events (anaemia, neutrophil count decreased and platelet count decreased)
preliminary efficacy signals by dose ([5]; 4.8 and 6.4 mg/kg compared to 8.0 mg/kg, small sample size): better preliminary efficacy signals
median PFS ([5]; OVC subjects, 3.2 mg/kg): 13.9 months
median PFS ([5]; OVC subjects, 4.8 mg/kg): 7.9 months
median PFS ([5]; OVC subjects, 6.4 mg/kg): 5.8 months
median PFS ([5]; OVC subjects, 8.0 mg/kg): 5.6 months
median PFS ([5]; OVC subjects, doses ranging from 1.6 to 9.6 mg/kg): 5.8 months
dose-effect on efficacy ([5]; OVC subjects, higher dosing group, FIG. 16): consistent and pronounced reduction in tumor size
ORR compared to current standard of care (single-agent chemotherapies) in platinum resistant ovarian cancer ([5]; OVC subjects, new cut-off date): Higher ORR
PFS compared to current standard of care (single-agent chemotherapies) in platinum resistant ovarian cancer ([5]; OVC subjects, new cut-off date): Longer PFS
ORR ([5]; among 41 evaluable OVC subjects with measurable disease at baseline, 1.6 to 9.6 mg/kg): 36.6%
confirmed CR [5, 9]: One
confirmed PR [5, 9]: 14
CA-125 response rates among dose levels ([6]; OVC patients): High CA-125 response rates
CA-125 reductions ([6]; OVC subjects, FIG. 18): deep and durable
patients showed CA-125 responder ([6]; among 28 efficacy evaluable OVC patients, at least 50% reduction in CA-125 from baseline, confirmed and maintained at least 28 days): 15 patients
